Measurements published in patent US11319369B2, “Motor control function improving agent” (Kao Corporation, priority 2016, dated 2022).
Values belong to the molecule of their own block, whether it stands above or below them.

What was measured:
[1] = tested on: leptin receptor deficient C57BLKS/J male mice (db/db mice); assay: Rotarod (motor control function) test after 28-day administration of GIP or GIP-binding anti-GIP antibody; format: in vivo, mouse; conditions: intraperitoneal daily for 28 days, GIP 5 nmol/kg, anti-GIP antibody 1 mg/kg, rotarod 6-28 rpm, compared to control group, FIG. 2
Procedure: Six-week-old leptin receptor deficient C57BLKS/J male mice (db/db mice, Oriental Yeast Co., Ltd.) were transferred (room temperature: 23° C., humidity: 55±10%, light period: 7:00 to 19:00) and were fed with food and water ad libitum. The food was CE-2 (CLEA Japan, Inc.), and the mice were acclimated for 2 weeks under the above-mentioned environment and were then used for testing.
Mouse-derived GIP (manufactured by AnaSpec, Inc.) was dissolved in physiological saline at a concentration of 500 nM to give a GIP solution. […]
Physiological saline (control group), the GIP solution (5 nmol/kg body weight). […] After administration for 28 days, the motor control function was measured by a rotarod test.
The motor control function (the accommodation ability reflecting balance ability and agility) was evaluated by measuring the capacity of staying on a rod rotating at various speeds using a rotarod (MK-600A, manufactured by Muromachi Kikai Co., Ltd.). Each mouse was placed on a stationary rod, and the number of times of falling was measured with a program of 6 rpm (1 min)→12 rpm (1 min)→16 rpm (1 min)→20 rpm (1 min)→24 rpm (1 min)→28 rpm (1 min). […]

[2] = target: T1, PEGylated N-terminus 15 amino acids of active GIP (GIP(1-15)) (Homo sapiens, UniProt P09681); assay: Hybridoma screening ELISA with immobilized antigen (1); format: binding; conditions: hybridoma culture supernatant
T1 construct: PEGylated N-terminus 15 amino acids of active GIP (GIP(1-15)) was used as an antigen (1) for measurement; made in house; host or cells: synthetic peptide (no expression host)
Procedure: (§1) Polyethylene glycol was added to N-terminus 15 amino acids of active GIP (GIP(1-15)) (PEGylation (polyethylene glycolation)), and keyhole limpet hemocyanin (KLH) was then chemically bonded thereto to produce KLH-linked PEGylated GIP (1-15) as an immunogen.
(§2) The reaction between the hybridoma culture supernatant and the antigen (1) and (2) for measurement was evaluated by ELISA using immobilized antigen (1) and (2), and hybridomas that are positive for the antigen (1) and negative for the antigen (2) were selected as anti-active GIP monoclonal antibody-producing hybridomas.
(§3) Antibody-producing hybridoma was cloned by culturing the hybridomas obtained above through a limiting dilution method to obtain single colonies, and single colony-forming wells were subjected to ELISA again to establish 9B9H5-B9 line, which produces an antibody that is positive for the antigen (1) and negative for the antigen (2) (WO 2016/104439).

GIP(3-42) = target: T2, GIP(3-42) (Homo sapiens, UniProt P09681); assay: Sandwich ELISA, cross-reactivity with inactive GIP; format: binding; conditions: biotinylated antibody 1 μg/mL as detection antibody; GIP 8.2 to 2000 pg/mL; FIG. 1
T2 sequence (P09681 54-93): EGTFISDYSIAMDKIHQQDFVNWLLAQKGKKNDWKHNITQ
Procedure: (§4) The reactivity between the monoclonal antibody prepared in Production Example 1 and active GIP was confirmed by ELISA. The amino group of the anti-active GIP monoclonal antibody was biotinylated with NH2 group biotinylation kit (manufactured by Dojindo Laboratories). ELISA was performed using the produced biotinylated anti-active GIP monoclonal antibody at 1 μg/mL instead of a detection antibody, GIP detection antibody (biotinylated anti-total GIP monoclonal antibody), included in Human (total) GIP ELISA kit (manufactured by EMD Millipore Corporation). A […] dilution series of GIP(1-42) or GIP(3-42) was prepared in 6 steps (8.2 to 2000 pg/mL) with a 2000 pg/mL solution as the highest concentration. By using an anti-total GIP monoclonal antibody (included in Human GIP (total) ELISA kit manufactured by EMD Millipore Corporation) as a capture antibody, the biotinylated anti-active GIP monoclonal antibody as a detection antibody, and a peroxidase-streptavidin conjugate for detection, sandwich ELISA was conducted to prepare a calibration curve with GIP concentration on the X-axis and 450 nm-590 nm absorbance on the Y-axis (FIG. 1).

[3] = target: T3, PEGylated N-terminus 13 amino acids of inactive GIP (GIP(3-15)) (Homo sapiens, UniProt P09681); assay: Hybridoma screening ELISA with immobilized antigen (2); format: binding; conditions: hybridoma culture supernatant
T3 construct: made in house; host or cells: synthetic peptide (no expression host)
Procedure: as §1, §2, §3

GIP(1-42) = target: T4, GIP(1-42) (Homo sapiens, UniProt P09681); assay: Sandwich ELISA, reactivity with active GIP; format: binding; conditions: biotinylated antibody 1 μg/mL as detection antibody; GIP 8.2 to 2000 pg/mL; FIG. 1
T4 sequence (P09681 52-93): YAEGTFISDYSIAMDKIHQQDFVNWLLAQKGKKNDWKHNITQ
Procedure: as §4

[4] = tested on: aged C57BL/6J male mice (115-week-old); assay: Rotarod (motor control function) test in aged mice given anti-GIP antibody; format: in vivo, mouse; conditions: C57BL/6J mice, 0.5 mg/kg intraperitoneal once a week, tested at 115-week-old, FIG. 4
Procedure: Four-week-old C57BL/6J male mice (CLEA Japan, Inc.) were transferred (room temperature: 23° C., humidity: 55±10%, light period: 7:00 to 19:00) and were fed with food (D12450K, Research Diets, Inc.) and water ad libitum for 111 weeks.
The anti-active GIP antibody produced in Production Example 1 was dissolved in physiological saline at a concentration of 0.05 mg/mL to give an anti-GIP antibody solution.
Physiological saline (control group) or the anti-GIP antibody solution (0.5 mg/kg body weight) (anti-GIP antibody administration group) was intraperitoneally administered to C57BL/6J mice (107-week-old) once a week (9:00 to 10:00 a.m.), 8 times (8 weeks) in total.
The motor control function (the accommodation ability reflecting balance ability and agility) was evaluated by measuring the capacity of staying on a rod rotating at various speeds using a rotarod (MK-600A, manufactured by Muromachi Kikai Co., Ltd.). The test was performed for 50-week-old mice (non-administration group) and 115-week-old mice (non-administration group, control group, and anti-GIP antibody administration group). Each mouse was placed on a stationary rod, and the number of times of falling was measured with a program of 6 rpm (1 min)→12 rpm (1 min)→16 rpm (1 min)→20 rpm (1 min)→24 rpm (1 min)→28 rpm (1 min).
The analysis results were shown as the average value (Ave.)±standard error (SE). […]

Molecule: GIP: Mouse-derived GIP (manufactured by AnaSpec, Inc.), gastric inhibitory polypeptide, dissolved in physiological saline at 500 nM (YAEGTFISDYSIAMDKIRQQDFVNWLLAQRGKKSDWKHNITQ)
decrease in the motor control function (increase in the number of times of falling with an increase of the rotation speed) [1]: significant decrease

ELISA reaction with antigen (1) [2]: positive
cross-reactivity with GIP(3-42) (450 nm-590 nm absorbance) (GIP(3-42)): does not show cross-reactivity
ELISA reaction with antigen (2) [3]: negative
B1: monoclonal antibody prepared in Production Example 1: Mouse monoclonal anti-active GIP antibody produced by hybridoma 9B9H5-B9 line; H-chain variable region SEQ ID NO: 2, L-chain variable region SEQ … (antibody, listed as Mus musculus, V domains shown)
VH: QVQLQQPGAELVKPGASVKLSCKASGYTFTSFWMHWVIQRPGQGLEWIGEMNPSDGRTHFNEKFKTKATLTIDTSSNTAYMELNSLTSEDSAVYYCARRMEDWGQGTLVTVSA
VL: DIKMTQSPSSMYASLGERVTITCKASQDINSYLGWFQQKPGKSPKTLIYGANRLVDGVPSRFSGSGSGQDYSLTISSLEYDDMGIYYCLQYDEFPLTFGAGTKLELKR
reactivity with GIP(1-42) (450 nm-590 nm absorbance) (GIP(1-42)): capable of specifically detecting GIP(1-42)
motor control function (number of times of falling) compared to non-administration and control 115-week-old groups ([4]; 8 times from 107-week-old, rotarod 6-28 rpm): improvement in the motor control function was observed
motor control function relative to the non-administration (50-week-old) group ([4]; 8 times): equivalent to that of the non-administration (50-week-old) group
